Laboratory results as given in US20230183318A1.

Biological target: PD-L1
Experiment: -; literature value (Cheng et al., 2013)

## PD-1 WT
  Kd: 8.2 µM
